Measured values reported in patent US20190315864A1 (SUZHOU ALPHAMAB, published 2019).
Positions count from the first letter of the chain named.

B1: CTLA4 heavy chain single domain antibody No. 165 (VHH)
VHH: QVQLQESGGGSVQTGGSLRLSCVVSGHSYSRKCMGWFRQAPGKEREEVATFYTGDGRTYYADSVKGRFTISQDNAKNTLYLQMNSLKPEDTGMYFCAADRRVNCDLLQSTFYNYRGQGTQVTVSS
notes: Camel VHH expressed in E. coli (PET32b), nickel-purified
B2: CTLA4 heavy chain single domain antibody No. C2 (VHH)
VHH: QVQLQESGGGSVQPGGSLRLSCAVSGFTFSGYCMAWVRQAPGKGLEWVASIHRRDGSTDYADSVKGRFTISKDNSKNTLYLQMSSLKPEDTAVYYCAADPARLSCSGRVNSEYKYRGQGTQVTVSS
notes: as for B1
B3: CTLA4 heavy chain single domain antibody No. C38 (VHH)
VHH: QVQLQESGGGSVQAGGSLRLSCAASRYTASSNCMAWFRQAPGKEREGVATIYNGGGSTAYADSVKGRFTISQDNAKNTVYLQMNSLKPEDTAMYYCGAGSPRFCASATMTGGHHLFGYWGQGTQVTVSS
notes: as for B1
B4: CTLA4 heavy chain single domain antibody No. J37 (VHH)
VHH: B3 VHH with S17T, A24V, R26G, Y27V, A29Y, S31P, N32H, A35G, T50A
notes: as for B1
B5: CTLA4 heavy chain single domain antibody No. J17 (VHH)
VHH: QVQLQESGGGSVQAGGSLRLSCAASGFTLSSYTMTWLRQAPGKGLEWVSTINSGGSTSYADSVKGRFAISRDNAKNILYLQLNSLEIEDTGMYYCQGGLTQRGQGTQVTVSS
notes: as for B1
B6: CTLA4 heavy chain single domain antibody No. J29 (VHH)
VHH: B5 VHH with S11L, A14P, L29I, R38H, S58A, I77T, E86K
notes: as for B1
B7: CTLA4 heavy chain single domain antibody No. J35 (VHH)
VHH: QVQLQESGGGSVQAGGSLRLSCAASGYTSGYYVMGWYRQAPGKLREFVSSIDSNGGTMYADSVKGRFTISQDNAKNTAHLQMNSLKPEDTAMYYCKRDSPGNFYWGQGTQVTVSS
notes: as for B1
B8: CTLA4 heavy chain single domain antibody No. J39 (VHH)
VHH: QVQLQESGGGSVQAGGSLRLSCAPSRYSGALMGWFRQAPGKEREGVAVISRSGLTTYYADSVKGRFTISQDTAKNTIYLQMNSMKPEDTAMYYCVAAPEARAWSSRDPTGYNYWGQGTQVTVSS
notes: as for B1
B9: CTLA4 heavy chain single domain antibody No. J42 (VHH)
VHH: QVQLQESGGGSVQAGGSLRLSCAASGYTYSSYNSNCMGWFRQAPGKEREGVAAIDSDGSTSYADSVKGRFTISKDNAKNTLYLQMNSLKPEDTAMYYCAASPRTCEVFSLGGSWHLFGYWGQGTQVTVSS
notes: as for B1
B10: CTLA4 heavy chain single domain antibody No. J5 (VHH)
VHH: QVQLQESGGGSVQAGGSLRLSCAASGYTYSTYCMAWFRQVPEKERERVASIYTGGGTTYYADSVKGRFTISLDNAKNTLYLQMNSLKPEDTAMYYCAKSAARCDSSRDVNRLGYWGQGTQVTVSS
notes: as for B1

Columns and labels:
CTLA4-Fc fusion protein [1] = biological target: T1, CTLA4-Fc fusion protein (human, biotinylated where used as CTLA4-Fc-Biotin (Examples 5.1-5.3)); experiment: ELISA, CTLA4-Fc coated, 10 ng VHH/well
T1 construct: expressed in HEK293 cells; also called human CTLA4-Fc protein; CTLA4-Fc antigen protein
Method: (§1) Plates were coated with CTLA4-Fc fusion protein overnight at 4° C. and 10 ng of the heavy chain single-domain antibody obtained in Example 2.1 (the control was a single domain antibody not binding to the CTLA4-Fc protein) was added to each well and allowed to react for 1 hour at room temperature. After washing, primary antibody anti-His tag antibody (purchased from Beijing Kangwei Century Biotechnology Co., Ltd.) was added and reacted for 1 hour at room temperature. After washing, a secondary goat anti-mouse horseradish peroxidase-labeled antibody (Yiqiao Shenzhou, Cat: SSA007200) was added and reacted for 1 hour at room temperature. After washing, chromogenic agent was added and the absorbance was read at 405 nm.

Fc protein = biological target: T2, Fc protein; experiment: ELISA, Fc protein coated, 10 ng VHH/well
T2 construct: Counter-screen for the Fc part of CTLA4-Fc
Method: (§2) Plates were coated with Fc protein overnight at 4° C. and 10 ng of the heavy chain single domain antibody obtained in Example 2.1 was added to each well (control was a single domain antibody against other unrelated targets) and allowed to react for 1 hour at room temperature. After washing, an rabbit anti-human Fc antibody (purchased from Shanghai Pu Xin Biotechnology Co., Ltd.) was added and reacted for 1 hour at room temperature. After washing, goat anti-rabbit horseradish peroxidase labeled antibody (purchased from Shanghai Pu Xin Biotechnology Co., Ltd.) was added and reacted at room temperature for 1 hour. After washing, chromogenic agent was added and the absorbance was read at 405 nm.

CTLA4-Fc fusion protein [2] = biological target: T1, CTLA4-Fc fusion protein; experiment: ELISA OD ratio, value equals OD(CTLA4)/OD(Fc)
Method: as §1, §2

CTLA4-Fc fusion protein [3] = biological target: T1, CTLA4-Fc fusion protein; experiment: ELISA OD ratio, value equals OD(CTLA4)/OD(blank)
Method: as §1

CTLA4-Fc fusion protein [4] = biological target: T1, CTLA4-Fc fusion protein; experiment: competitive ELISA: CD80-Fc-Biotin signal on coated CTLA4-Fc with 500 ng VHH/well; competitor CD80-Fc-Biotin
Method: SA-HRP (purchased from Sigma) was added and allowed to react for 1 hour at room temperature. After adding chromogenic solution, absorbance was read at 405 nm wavelength.

| Binder | OD (against CTLA4) (CTLA4-Fc fusion protein [1]) | OD (against Fc) (Fc protein) | ODa/OD blank (CTLA4-Fc fusion protein [2]) | ODa/ODb (CTLA4-Fc fusion protein [3]) | OD (CTLA4-Fc fusion protein [4]) |
| --- | --- | --- | --- | --- | --- |
| B1 | 1.21 OD405 | 0.051 OD405 | 23.8 | 43.4 | 1.84 OD405 |
| B2 | 1.23 OD405 | 0.035 OD405 | 35.2 | 44 | 2.52 OD405 |
| B3 | 1.02 OD405 | 0.045 OD405 | 22.7 | 36.5 | 2.28 OD405 |
| B4 | 1.2 OD405 | 0.034 OD405 | 35.3 | 42.9 | 1.06 OD405 |
| B5 | 1.4 OD405 | 0.046 OD405 | 30.4 | 50 | 2.53 OD405 |
| B6 | 1.44 OD405 | 0.036 OD405 | 40 | 51.4 | 2.5 OD405 |
| B7 | 0.823 OD405 | 0.036 OD405 | 22.9 | 29.4 | 2.57 OD405 |
| B8 | 1.75 OD405 | 0.042 OD405 | 41.6 | 62.4 | 2.13 OD405 |
| B9 | 1.09 OD405 | 0.045 OD405 | 24.1 | 38.8 | 0.94 OD405 |
| B10 | 1.21 OD405 | 0.036 OD405 | 33.6 | 43.2 | 2.5 OD405 |
